Data: US20110289632A1, “METHYLKETONE SYNTHASE, PRODUCTION OF METHYLKETONES IN PLANTS AND BACTERIA” (The Regents of the University of Michigan, priority 2009, published 2011)

Substrate: CCCCCCCCCCCC(=O)CC(=O)O
Assay: Steady-state kinetic decarboxylase assay (3-ketomyristic acid to 2-tridecanone, GC-MS)
Type: biochemical, Solanum habrochaites f glabratum
Conditions: other: ShMKS1 decarboxylase, substrate 5 μM to 75 μM, pH 7.0, 23° C., 10 min
Procedure: To examine the possible decarboxylase activity of ShMKS1 as well as ShMKS2 in vitro, we tested homogenous recombinant ShMKS1 and partially purified recombinant ShMKS2 proteins (without their transit peptides) for their ability to convert 3-ketomyristic acid into its 2-tridecanone decarboxylated product. […] In steady-state kinetic assays, ShMKS1 was determined to have a KM of 18.4±5.6 μM for 3-ketomyristic acid, with an apparent kcat of 227.9±24.1 min^−1.
His-tagged ShMKS1 and ShMKS2 were affinity-purified on Nickel-agarose chromatography using the protocol described in Fridman et al., (2005) Metabolic, genomic, and biochemical analyses of glandular trichomes from the wild tomato species Lycopersicon hirsutum identify a key enzyme in the biosynthesis of methylketones, Plant Cell 17: 1252-1267. After elution from the Nickel-agarose column, the proteins were analyzed by SDS-PAGE and ShMKS2 dialyzed against 50 mM phosphate buffer pH 6.8, 500 mM NaCl, and 1M (NH4)2SO4, and 2 mM DTT and ShMKS1 dialyzed against 12.5 mM phosphate buffer pH 6.8, 50 mM NaCl, and 2 mM DTT. ShMKS1 purity was estimated at 99%, and ShMKS2 purity was estimated at 6%.
A typical decarboxylase assay consisted of a 500 μL reaction solution containing ShMKS1 or ShMKS2 (2.5 μg), 3-ketomyristic acid (0.1 mM), and 1,3-bis(tris(hydroxymethyl)methylamino) propane—Na^+ (20 mM, pH 7.0). […]

B1: Solanum habrochaites f glabratum methylketone synthase 1 (ShMKS1), recombinant His-tagged, SEQ ID NO: 17 (Solanum habrochaites) (protein)
chain: MEKSMSPFVKKHFVLVHTAFHGAWCWYKIVALMRSSGHNVTALDLGASGINPKQALQIPNFSDYLSPLMEFMASLPANEKIILVGHALGGLAISKAMETFPEKISVAVFLSGLMPGPNIDATTVCTKAGSAVLGQLDNCVTYENGPTNPPTTLIAGPKFLATNVYHLSPIEDLALATALVRPLYLYLAEDISKEVVLSSKRYGSVKRVFIVATENDALKKEFLKLMIEKNPPDEVKEIEGSDHVTMMSKPQQLFTTLLSIANKYK
notes: no cleavable transit peptide, 265-residue protein
B1 showed a Km of 18.4 ± 5.6 µM and a kcat of 3.798 ± 0.402 s⁻¹.
